US6958236B2, “Control of gene expression in plants” (priority 2000, dated 2005)

Tested on: pCGS154 reporter
Assay: Transient transfection of S2 Drosophila cells with luciferase reporter and EcR receptor plasmids
Format: cell-based
Conditions: for No Chemistry (luciferase activity as ratio to pCGS154 reporter without chemistry): reporter CGS154, no chemical ligand; for Assay # 1 Fold Activation With Chemistry / Assay # 2 Fold Activation With Chemistry: Example 6, 0.2 μM tebufenozide vs without chemistry, normalized to pCGS154 reporter without receptor
Experimental: An in vivo cell based assay is designed to measure transcriptional activation by the receptors of a reporter plasmid. S2 Drosophila cells (ATCC CRL-1963) are transiently transfected with luciferase reporter and receptor expression plasmids using the calcium phosphate precipitation procedure (Di Nocera and David (1983) PNAS 80, 7095-7098). S2 cells are plated in 96 well format at a density of 2×10^5 in 166.6 μl of Schneider's Drosophila media supplemented with antibiotics and 10% heat inactivated fetal bovine serum (GIBO-BRL). The following day, 33.4 μl of a calcium phosphate precipitate containing 3-6 ng of pCGS154 reporter plasmid, 3-6 ng of EcR receptor plasmid along with salmon sperm DNA to a total of 400 ng DNA per well is added. Chemical ligands are added 16-24 hours after DNA addition to the cells. Cells are then harvested and extracted 24 hours after chemistry addition following the procedures for the luciferase assay by centrifuging and resuspending the cell pellets in 100 μl of cell culture lysis reagent (Promega). Luciferase activity is quantitated using chemiluminescence (Promega) using an analytical luminescence model 2001 luminometer.
S2 cells contain Drosophila EcR and USP. The endogenous USP can be used as the heterodimerization partner for EcR or exogenous USP expression plasmid can be added to the assay.
To compare the activities of Manduca and Drosophila EcR, S2 cells are transiently transfected using the above procedure with the reporter plasmid pCGS 154 and either full-length Drosophila EcR, DDV, full-length Manduca EcR, or MMV. Tebufenozide at 0.2 µM and 2 μM is used as the chemical ligand. Luciferase assays are performed as described above. All of the results are normalized as a ratio of activity to the light unit value for the pCGS154 reporter without chemistry.
The activities of the EcR-VP16 chimeras are compared by transiently transfecting S2 cells as described in Example 3. Tebufenozide is added to the cells at 0.2 μM concentration. Results are expressed as fold activation, a ratio of the activity of the constructs with chemistry added as compared to activity of the constructs without chemistry. All results are normalized to the luciferase activity of the pCGS154 reporter without receptor addition.
(§1) The activities of the EcR-VP16 chimeras are compared by transiently transfecting S2 cells as in Example 3. Tebufenozide is added to the cells at 0.2 μM concentration. Results are expressed as fold activation of constructs with chemistry as compared to without chemistry. All results are normalized to the luciferase activity of the pCGS154 reporter without receptor.
as §1, with “chemistry addition.” for “chemistry.”

B1: MaFL: full-length Manduca EcR expression cassette in pPacU (protein, UniProt P49883 1-556, looked up)
chain: MRRRWSNNGCFPLRMFEESSSEVTSSSAFGMPAAMVMSPESLASPEYGGLELWSYDETMTNYPAQSLLGACNAPQQQQQQQQQQPSAQPLPSMPLPMPPTTPKSENESMSSGREELSPASSINGCSTDGEPRRQKKGPAPRQQEELCLVCGDRASGYHYNALTCEGCKGFFRRSVTKNAVYICKFGHACEMDMYMRRKCQECRLKKCLAVGMRPECVVPESTCKNKRREKEAQREKDKLPVSTTTVDDHMPAIMQCDPPPPEAARIHEVVPRFLTEKLMEQNRLKNVTPLSANQKSLIARLVWYQEGYEQPSEEDLKRVTQTWQLEEEEEEETDMPFRQITEMTILTVQLIVEFAKGLPGFSKISQSDQITLLKASSSEVMMLRVARRYDAATDSVLFANNQAYTRDNYRKAGMSYVIEDLLHFCRCMYSMSMDNVHYALLTAIVIFSDRPGLEQPLLVEEIQRYYLKTLRVYILNQHSASPRCAVLFGKILGVLTELRTLGTQNSNMCISLKLKNRKLPPFLEEIWDVAEVSTTQPTPGVAAQVTPIVVDNPAAL
modifications: full-length
notes: full-length Manduca EcR expression cassette in pPacU
With B1 as the molecule, how does the “No Chemistry (luciferase activity as ratio to pCGS154 reporter without chemistry)” value read?
The value was 1.

B2: MMV: EcR chimera: Manduca sexta C+D and E domains, VP16; SEQ ID NO:93-94 (protein)
chain: MGREELSPASSINGCSTDGEPRRQKKGPAPRQQEELCLVCGDRASGYHYNALTCEGCKGFFRRSVTKNAVYICKFGHACEMDMYMRRKCQECRLKKCLAVGMRPECVVPESTCKNKRREKEAQREKDKLPVSTTTVDDHMPAIMQCDPPPPEAARIHEVVPRFLTEKLMEQNRLKNVTPLSANQKSLIARLVWYQEGYEQPSEEDLKRVTQTWQLEEEEEEETDMPFRQITEMTILTVQLIVEFAKGLPGFSKISQSDQITLLKASSSEVMMLRVARRYDAATDSVLFANNQAYTRDNYRKAGMSYVIEDLLHFCRCMYSMSMDNVHYALLTAIVIFSDRPGLEQPLLVEEIQRYYLKTLRVYILNQHSASPRCAVLFGKILGVLTELRTLGTQNSNMCISLKLKNRKLPPFLEEIWDVAEVSTTKLAPPTDVSLGDELHLDGEDVAMAHADALDDFDLDMLGDGDSPGPGFTPHDSAPYGALDMADFEFEQMFTDALGIDEYGG
With B2 as the molecule, how does the “Assay # 1 Fold Activation With Chemistry” value read?
Its value is 87.65 fold.

And the “Assay # 2 Fold Activation With Chemistry” value?
The value was 151.06 fold.

What about the “Fold Activation With Chemistry Assay #1” value (Example 7, 0.2 μM tebufenozide) of the same molecule?
The value was 719.2 fold.

What about the “Fold Activation With Chemistry Assay #2” value (Example 7, 0.2 μM tebufenozide) of the same molecule?
The value was 595.1 fold.

What about the “No Chemistry (luciferase activity as ratio to pCGS154 reporter without chemistry)” value of the same molecule?
Its value is 1.

B3: DDV: EcR chimera: Drosophila melanogaster C+D and E domains, VP16; SEQ ID NO:95-96 (protein)
chain: MGRDDLSPSSSLNGYSANESCDAKKSKKGPAPRVQEELCLVCGDRASGYHYNALTCEGCKGFFRRSVTKSAVYCCKFGRACEMDMYMRRKCQECRLKKCLAVGMRPECVVPENQCAMKRREKKAQKEKDKMTTSPSSQHGGNGSLASGGGQDFVKKEILDLMTCEPPQHATIPLLPDEILAKCQARNIPSLTYNQLAVIYKLIWYQDGYEQPSEEDLRRIMSQPDENESQTDVSFRHITEITILTVQLIVEFAKGLPAFTKIPQEDQITLLKACSSEVMMLRMARRYDHSSDSIFFANNRSYTRDSYKMAGMADNIEDLLHFCRQMFSMKVDNVEYALLTAIVIFSDRPGLEKAQLVEAIQSYYIDTLRIYILNRHCGDSMSLVFYAKLLSILTELRTLGNQNAEMCFSLKLKNRKLPKFLEEIWDVHAIPPKLAPPTDVSLGDELHLDGEDVAMAHADALDDFDLDMLGDGDSPGPGFTPHDSAPYGALDMADFEFEQMFTDALGIDEYGG
For B3, which “Assay # 1 Fold Activation With Chemistry” value is on record?
Its value is 1.01 fold.

And the “Assay # 2 Fold Activation With Chemistry” value?
Its value is 0.68 fold.

What about the “No Chemistry (luciferase activity as ratio to pCGS154 reporter without chemistry)” value of the same molecule?
The value was 1.

B4: DrosFL: full-length Drosophila EcR expression cassette in pPacU (protein, UniProt P34021 1-878, looked up)
chain: MKRRWSNNGGFMRLPEESSSEVTSSSNGLVLPSGVNMSPSSLDSHDYCDQDLWLCGNESGSFGGSNGHGLSQQQQSVITLAMHGCSSTLPAQTTIIPINGNANGNGGSTNGQYVPGATNLGALANGMLNGGFNGMQQQIQNGHGLINSTTPSTPTTPLHLQQNLGGAGGGGIGGMGILHHANGTPNGLIGVVGGGGGVGLGVGGGGVGGLGMQHTPRSDSVNSISSGRDDLSPSSSLNGYSANESCDAKKSKKGPAPRVQEELCLVCGDRASGYHYNALTCEGCKGFFRRSVTKSAVYCCKFGRACEMDMYMRRKCQECRLKKCLAVGMRPECVVPENQCAMKRREKKAQKEKDKMTTSPSSQHGGNGSLASGGGQDFVKKEILDLMTCEPPQHATIPLLPDEILAKCQARNIPSLTYNQLAVIYKLIWYQDGYEQPSEEDLRRIMSQPDENESQTDVSFRHITEITILTVQLIVEFAKGLPAFTKIPQEDQITLLKACSSEVMMLRMARRYDHSSDSIFFANNRSYTRDSYKMAGMADNIEDLLHFCRQMFSMKVDNVEYALLTAIVIFSDRPGLEKAQLVEAIQSYYIDTLRIYILNRHCGDSMSLVFYAKLLSILTELRTLGNQNAEMCFSLKLKNRKLPKFLEEIWDVHAIPPSVQSHLQITQEENERLERAERMRASVGGAITAGIDCDSASTSAAAAAAQHQPQPQPQPQPSSLTQNDSQHQTQPQLQPQLPPQLQGQLQPQLQPQLQTQLQPQIQPQPQLLPVSAPVPASVTAPGSLSAVSTSSEYMGGSAAIGPITPATTSSITAAVTASSTTSAVPMGNGVGVGVGVGGNVSMYANAQTAMALMGVALHSHQEQLIGGVAVKSEHSTTA
modifications: full-length
notes: full-length Drosophila EcR expression cassette in pPacU
B4 was tested. Which “No Chemistry (luciferase activity as ratio to pCGS154 reporter without chemistry)” value did it give?
Its value is 1.

B5: DMV: EcR chimera: Drosophila melanogaster C+D domains, Manduca sexta E domain, VP16; SEQ ID NO:71-72 (protein)
chain: MGRDDLSPSSSLNGYSANESCDAKKSKKGPAPRVQEELCLVCGDRASGYHYNALTCEGCKGFFRRSVTKSAVYCCKFGRACEMDMYMRRKCQECRLKKCLAVGMRPECVVPENQCAMKRREKKAQKEKDKMTTSPSSQHGGNGSLASGGGQDFVKKEILDLMTCEPPQHATIPLLPDEILAKCQARNIPSLTYNQLAVIYKLIWYQEGYEQPSEEDLKRVTQTWQLEEEEEEETDMPFRQITEMTILTVQLIVEFAKGLPGFSKISQSDQITLLKASSSEVMMLRVARRYDAATDSVLFANNQAYTRDNYRKAGMSYVIEDLLHFCRCMYSMSMDNVHYALLTAIVIFSDRPGLEQPLLVEEIQRYYLKTLRVYILNQHSASPRCAVLFGKILGVLTELRTLGTQNSNMCISLKLKNRKLPPFLEEIWDVAEVSTTKLAPPTDVSLGDELHLDGEDVAMAHADALDDFDLDMLGDGDSPGPGFTPHDSAPYGALDMADFEFEQMFTDALGIDEYGG
What does the source list for B5?
Assay # 1 Fold Activation With Chemistry: 8.67 fold; Assay # 2 Fold Activation With Chemistry: 3.72 fold

B6: LMV: EcR chimera: Locusta migratoria C+D domains, Manduca sexta E domain, VP16; SEQ ID NO:83-84 (protein)
chain: MGREDLSPLSSLNGYSADSCDAKKKKGAAPRQQEELCLVCGDRASGYHYNALTCEGCKGFFRRSITKNAVYQCKYGNNCEIDMYMRRKCQECRLKKCLTVGMRPECVVPEYQCAVKRKEKKAQKDKDKPNSTTNGSPEVMMLKDIDAKVEPERPLSNGIKPVSPEQEELIHRLVWYQEGYEQPSEEDLKRVTQTWQLEEEEEEETDMPFRQITEMTILTVQLIVEFAKGLPGFSKISQSDQITLLKASSSEVMMLRVARRYDAATDSVLFANNQAYTRDNYRKAGMSYVIEDLLHFCRCMYSMSMDNVHYALLTAIVIFSDRPGLEQPLLVEEIQRYYLKTLRVYILNQHSASPRCAVLFGKILGVLTELRTLGTQNSNMCISLKLKNRKLPPFLEEIWDVAEVSTTKLAPPTDVSLGDELHLDGEDVAMAHADALDDFDLDMLGDGDSPGPGFTPHDSAPYGALDMADFEFEQMFTDALGIDEYGG
How did the “Fold Activation With Chemistry” value (Example 6, third column (LLV, LMV), 0.2 μM tebufenozide) turn out when B6 was run?
Its value is 48.8 fold.
